# Measured values as given in patent US20230099801A1, “RESTORATION OF T CELL ACTIVITY VIA THE CD39/CD73 AXIS” (INNATE PHARMA, priority 2017, published 2023).
# Positions count from the first letter of the chain named.
# T1: CD73 mutants having a substitution at residue K136 (Homo sapiens, UniProt P21589, K136A)
# T1 sequence (P21589 27-549 K136A): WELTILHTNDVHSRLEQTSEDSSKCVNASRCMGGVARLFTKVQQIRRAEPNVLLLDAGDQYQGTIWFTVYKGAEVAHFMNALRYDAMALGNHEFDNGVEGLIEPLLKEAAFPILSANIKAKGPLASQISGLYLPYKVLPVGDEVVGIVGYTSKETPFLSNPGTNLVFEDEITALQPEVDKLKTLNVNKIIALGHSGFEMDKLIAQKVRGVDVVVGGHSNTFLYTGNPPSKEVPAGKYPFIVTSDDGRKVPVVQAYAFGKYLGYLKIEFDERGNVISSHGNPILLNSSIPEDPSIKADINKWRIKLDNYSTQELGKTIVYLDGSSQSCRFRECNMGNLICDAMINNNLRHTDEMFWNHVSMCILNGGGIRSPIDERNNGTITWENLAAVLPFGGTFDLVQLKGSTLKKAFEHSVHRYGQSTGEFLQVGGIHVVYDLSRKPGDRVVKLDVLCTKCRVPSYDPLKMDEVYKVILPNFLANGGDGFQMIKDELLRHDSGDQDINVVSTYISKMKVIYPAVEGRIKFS
# T2: CD73 mutants having substitutions at residues A99, E129, K133, E134 and A135 (Homo sapiens, UniProt P21589, A135S/A99S/E129A/E134N/K133A)
# T2 sequence (P21589 27-549 A99S/E129A/K133A/E134N/A135S): T1 sequence (P21589 27-549 K136A) with A73S, E103A, K107A, E108N, A109S, A110K
# T3: soluble recombinant human CD39 protein (Homo sapiens, UniProt P49961)
# T3 construct: made in house; host or cells: CHO cells
# T3 sequence (P49961 with tags, fused parts or gaps): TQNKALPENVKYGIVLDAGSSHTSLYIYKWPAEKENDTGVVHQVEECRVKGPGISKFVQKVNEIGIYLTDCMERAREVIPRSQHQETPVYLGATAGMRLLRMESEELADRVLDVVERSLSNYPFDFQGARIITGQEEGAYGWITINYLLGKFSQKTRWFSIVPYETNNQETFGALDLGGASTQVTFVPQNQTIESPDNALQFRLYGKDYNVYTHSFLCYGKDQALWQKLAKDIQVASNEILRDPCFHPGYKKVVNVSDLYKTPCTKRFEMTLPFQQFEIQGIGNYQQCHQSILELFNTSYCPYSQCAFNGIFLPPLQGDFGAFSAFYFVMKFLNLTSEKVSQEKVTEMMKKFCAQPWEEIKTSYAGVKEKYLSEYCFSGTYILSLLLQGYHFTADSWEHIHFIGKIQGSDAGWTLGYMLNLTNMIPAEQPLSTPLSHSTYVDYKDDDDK
# T4: CD39 mutant 11 (Homo sapiens, UniProt P49961, DUP378-378/E375A/K376G/L372K/N371K/V377S)
# T4 construct: expressed in transfected cells; host or cells: HEK-293T cells
# T4 sequence (P49961 with tags, fused parts or gaps N371K/L372K/E375A/K376G/DUP378-378): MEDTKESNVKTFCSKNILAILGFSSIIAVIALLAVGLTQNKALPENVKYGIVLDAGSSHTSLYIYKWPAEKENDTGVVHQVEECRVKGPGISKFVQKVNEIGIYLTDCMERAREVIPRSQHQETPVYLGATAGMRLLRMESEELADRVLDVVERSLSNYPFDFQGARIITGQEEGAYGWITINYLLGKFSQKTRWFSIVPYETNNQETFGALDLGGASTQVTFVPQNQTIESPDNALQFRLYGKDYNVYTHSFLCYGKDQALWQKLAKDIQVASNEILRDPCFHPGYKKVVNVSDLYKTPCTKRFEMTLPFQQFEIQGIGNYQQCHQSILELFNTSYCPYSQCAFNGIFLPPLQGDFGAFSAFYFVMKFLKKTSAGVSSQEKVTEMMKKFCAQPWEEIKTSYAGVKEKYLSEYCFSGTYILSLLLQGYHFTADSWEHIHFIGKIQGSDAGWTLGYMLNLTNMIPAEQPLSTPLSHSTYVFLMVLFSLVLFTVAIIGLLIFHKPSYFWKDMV
# B1: 11E1: anti-CD73 antibody, VH and VL of SEQ ID NOS: 40 and 41 (antibody, listed as Mus musculus, V domains shown)
# VH: EIQLQQSGPELVKPGASVKVSCKASGYAFTSYNMYWVKQSHGKSLEWIGYIDPYNGGTSYNQKFKGKATLTVDKSSSTAYMHLNSLTSEDSAVYYCARGYGNYKAWFAYWGQGTLVTVSA
# VL: DAVMTQTPKFLLVSAGDRVTITCKASQSVTNDVAWYQQKPGQSPKLLIYYASNRYTGVPDRFTGSGYGTDFTFTISTVQAEDLAVYFCQQDYSSLTFGAGTKLELK
# B2: 6E1: anti-CD73 antibody, VH and VL of SEQ ID NOS: 3 and 4 (WO2016/055609) (antibody, listed as Mus musculus, V domains shown)
# VH: B1 VH with I2F, S44R, T58S, S85N, G101N
# VL: B1 VL with D1S, A2I, V78M
# B3: 3C12: anti-CD73 antibody, VH and VL of SEQ ID NOS: 44 and 45 (antibody, listed as Mus musculus, V domains shown)
# VH: QIQLQQSGPELVKPGASVKVSCKASGYAFASYNMNWVKQSHGKSLDWIGYIDPYNGGSSYNLTFKGKATLTVDKSSTTAYMHLNSLTSEDSAVYYCARGYGNYKAWFAYWGQGTLVTVSAASTKGP
# VL: DVVMTQTPKFLLVSAGDRVTITCKASQSVSNDVAWYQQKPGQSPKLLIYYASTRYTGVPDRFTGSGYGTDFTFTISTVQAEDLAVYFCQQDYSSLTFGAGTKLELKRTVAAP
# B4: 8C7: anti-CD73 antibody, VH and VL of SEQ ID NOS: 42 and 43 (antibody, listed as Mus musculus, V domains shown)
# VH: B3 VH with Q1E, I2V
# VL: B3 VL with D1S, V2I, Q6P
# B5: I-399: anti-CD39 antibody, VH SEQ ID NO: 30, VL SEQ ID NO: 31 (antibody, listed as Mus musculus, V domains shown)
# VH: PVQLQQPGAEVVMPGASVKLSCKASGYTFTSFWMNWMRQRPGQGLEWIGEIDPSDFYTNSNQRFKGKATLTVDKSSSTAYMQLSSLTSEDSAVYFCARGDFGWYFDVWGTGTSVTVSS
# VL: EIVLTQSPTTMTSSPGEKITFTCSASSSINSNYLHWYQQKPGFSPKLLIYRTSNLASGVPTRFSGSGSGTSYSLTIGTMEAEDVATYYCQQGSSLPRTFGGGTKLEIK
# Assays:
# [1] = test system: CD73 mutants having a substitution at residues K97, E125, Q153 and K330; details: cited from earlier work
# [2] = target: T1, CD73 mutants having a substitution at residue K136; details: cited from earlier work
# [3] = target: T2, CD73 mutants having substitutions at residues A99, E129, K133, E134 and A135; details: cited from earlier work
# [4] = target: T3, soluble recombinant human CD39 protein; assay: Inhibition of the enzymatic (ATPase) activity of soluble CD39, Cell Titer Glo; type: biochemical; details: 400 ng/ml soluble CD39, 20 μM ATP
# Method: The ability of an antibody to inhibit soluble recombinant human CD39 protein can be tested by detecting ATP after incubating test antibody with soluble CD39 protein (e.g., the CD39 protein having the amino acid sequence of SEQ ID NO: 5, as produced in Example 1, optionally further comprising a purification tag or other functional or non-functional non-CD39-derived amino acid sequence). See, e.g., Example 1. Briefly, ATP can be quantified using the Cell Titer Glo™ (Promega), in an assay in which dose ranges of test antibody are incubated with soluble recombinant human CD39 protein described in Example 1, for 1 hour at 37° C. 20 μM ATP are added to the plates for 30 additional minutes at 37° C. before addition of CTG reagent. Emitted light is quantified using an Enspire™ luminometer after a short incubation period of 5 min in the dark.
# The inhibition by antibodies of the enzymatic activity of soluble CD39 protein produced was evaluated using Cell Titer Glo™ (Promega, reference G7571) that allows assessment of ATP hydrolysis through use of a reagent that generates a luminescent signal proportional to the amount of ATP present. In this way, inhibition of the soluble-CD39-mediated ATP hydrolysis can be assessed. Briefly, dose ranges of anti-CD39 antibodies from 100 μg/ml to 6×10^−3 μg/ml were incubated with 400 ng/ml of soluble recombinant human CD39 protein having the amino acid sequence described in the Methods section (SEQ ID NO: 54), for 1h at 37° C. 20 μM ATP was added to the plates for 30 additional minutes at 37° C. before addition of CTG (Cell Titer Glo) reagent. Emitted light was quantified using an Enspire™ luminometer after a short incubation period of 5 min in the dark. Anti-CD39 antibody efficacy was determined by comparing emitted light in presence of antibody with ATP alone (maximal light emission) and ATP together with soluble CD39 protein (minimal light emission).
# [5] = test system: other CD39 mutants of Table 1; assay: Epitope mapping by flow cytometry on the other CD39 mutants of Table 1; type: binding, human
# Method: (§1) CD39 mutants were generated by PCR. The sequences amplified were run on agarose gel and purified using the Macherey Nagel PCR Clean-Up Gel Extraction kit (reference 740609). The purified PCR products generated for each mutant were then ligated into an expression vector, with the ClonTech InFusion system. The vectors containing the mutated sequences were prepared as Miniprep and sequenced. After sequencing, the vectors containing the mutated sequences were prepared as Midiprep using the Promega PureYield™ Plasmid Midiprep System. HEK293T cells were grown in DMEM medium (Invitrogen), transfected with vectors using Invitrogen's Lipofectamine 2000 and incubated at 37° C. in a CO2 incubator for 48 hours prior to testing for transgene expression. The targeted amino acid mutations in the table 1 below are shown using numbering of SEQ ID NO: 2.
# (§2) In order to define the epitopes of anti-CD39 antibodies, we designed CD39 mutants defined by substitutions of amino acids exposed at the molecular surface over the surface of CD39.
# Mutant 5 contains amino acid substitutions at residues Q96, N99, E143 and R147.
# (§3) Mutants were transfected in Hek-293T cells, as shown in the table 1, using numbering of SEQ ID NO: 2. Dose-ranges of test antibodies (10-2.5-0.625-0.1563-0.0391-0.0098-0.0024-0.0006 μg/ml) are tested on the 20 generated mutants by flow cytometry.
# [6] = target: T4, CD39 mutant 11; assay: Epitope mapping by flow cytometry on Hek-293T cells expressing CD39 mutant 11; type: binding; details: insertion 377V, V377S (Table 1)
# Method: as §1, §2, §3
Molecule,"binding to CD73 mutants having a substitution at residues K97, E125, Q153 and K330 [1]",binding to CD73 mutants having a substitution at residue K136 [2],"binding to CD73 mutants having substitutions at residues A99, E129, K133, E134 and A135 [3]",inhibition of the enzymatic (ATPase) activity of soluble CD39 protein [4],binding to any other mutant of the 20 CD39 mutants [5],binding to cells expressing mutant 11 of CD39 [6]
B1,lose binding,lose binding,lose binding,,,
B2,lose binding,lose binding,lose binding,,,
B3,lose binding,lose binding,lose binding,,,
B4,lose binding,lose binding,lose binding,,,
B5,,,,showed inhibition,without loss of binding,loss of binding
